Tests used:
Assay in all cases: Kinase Profiling Assay
Assay type in all cases: biochemical
Conditions in all cases: 100 μM
Src(1-530) (h) = target: T1, Src(1-530) (h) (Homo sapiens, UniProt P12931)
T1 construct: Src(1-530) (h)
Summary of the method: (§1)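 Each kinase activity was measured in duplicate. Phosphorylation of a positively charged substrate with radiolabeled phosphate from ATP was captured on a negatively charged filter, counted by scintillation and expressed relative to a 100% activity control. MK2 inhibitory peptides were screened for specificity across 266 human kinases.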

CaMKIIδ (h) = target: T2, CaMKIIδ (h) (Homo sapiens, UniProt Q13557)
T2 construct: purchased Millipore
T2 sequence (Q13557 whole entry): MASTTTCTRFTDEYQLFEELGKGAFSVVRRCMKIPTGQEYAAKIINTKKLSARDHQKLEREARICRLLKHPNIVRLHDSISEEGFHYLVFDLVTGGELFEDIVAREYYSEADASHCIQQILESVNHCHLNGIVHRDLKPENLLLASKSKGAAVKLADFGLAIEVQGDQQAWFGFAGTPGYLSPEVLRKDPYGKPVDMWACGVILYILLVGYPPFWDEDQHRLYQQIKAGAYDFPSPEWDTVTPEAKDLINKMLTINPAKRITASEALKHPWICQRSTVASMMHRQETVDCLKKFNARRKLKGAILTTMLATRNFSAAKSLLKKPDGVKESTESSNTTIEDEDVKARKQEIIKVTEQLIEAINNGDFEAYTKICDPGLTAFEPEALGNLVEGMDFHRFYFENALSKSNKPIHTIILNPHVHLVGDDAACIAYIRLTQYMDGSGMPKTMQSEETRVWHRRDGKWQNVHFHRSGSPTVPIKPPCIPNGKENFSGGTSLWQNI
Summary of the method: as §1

KDR (h) = KDR (h) (Homo sapiens, UniProt P35968)
KDR (h), sequence (P35968 20-1356): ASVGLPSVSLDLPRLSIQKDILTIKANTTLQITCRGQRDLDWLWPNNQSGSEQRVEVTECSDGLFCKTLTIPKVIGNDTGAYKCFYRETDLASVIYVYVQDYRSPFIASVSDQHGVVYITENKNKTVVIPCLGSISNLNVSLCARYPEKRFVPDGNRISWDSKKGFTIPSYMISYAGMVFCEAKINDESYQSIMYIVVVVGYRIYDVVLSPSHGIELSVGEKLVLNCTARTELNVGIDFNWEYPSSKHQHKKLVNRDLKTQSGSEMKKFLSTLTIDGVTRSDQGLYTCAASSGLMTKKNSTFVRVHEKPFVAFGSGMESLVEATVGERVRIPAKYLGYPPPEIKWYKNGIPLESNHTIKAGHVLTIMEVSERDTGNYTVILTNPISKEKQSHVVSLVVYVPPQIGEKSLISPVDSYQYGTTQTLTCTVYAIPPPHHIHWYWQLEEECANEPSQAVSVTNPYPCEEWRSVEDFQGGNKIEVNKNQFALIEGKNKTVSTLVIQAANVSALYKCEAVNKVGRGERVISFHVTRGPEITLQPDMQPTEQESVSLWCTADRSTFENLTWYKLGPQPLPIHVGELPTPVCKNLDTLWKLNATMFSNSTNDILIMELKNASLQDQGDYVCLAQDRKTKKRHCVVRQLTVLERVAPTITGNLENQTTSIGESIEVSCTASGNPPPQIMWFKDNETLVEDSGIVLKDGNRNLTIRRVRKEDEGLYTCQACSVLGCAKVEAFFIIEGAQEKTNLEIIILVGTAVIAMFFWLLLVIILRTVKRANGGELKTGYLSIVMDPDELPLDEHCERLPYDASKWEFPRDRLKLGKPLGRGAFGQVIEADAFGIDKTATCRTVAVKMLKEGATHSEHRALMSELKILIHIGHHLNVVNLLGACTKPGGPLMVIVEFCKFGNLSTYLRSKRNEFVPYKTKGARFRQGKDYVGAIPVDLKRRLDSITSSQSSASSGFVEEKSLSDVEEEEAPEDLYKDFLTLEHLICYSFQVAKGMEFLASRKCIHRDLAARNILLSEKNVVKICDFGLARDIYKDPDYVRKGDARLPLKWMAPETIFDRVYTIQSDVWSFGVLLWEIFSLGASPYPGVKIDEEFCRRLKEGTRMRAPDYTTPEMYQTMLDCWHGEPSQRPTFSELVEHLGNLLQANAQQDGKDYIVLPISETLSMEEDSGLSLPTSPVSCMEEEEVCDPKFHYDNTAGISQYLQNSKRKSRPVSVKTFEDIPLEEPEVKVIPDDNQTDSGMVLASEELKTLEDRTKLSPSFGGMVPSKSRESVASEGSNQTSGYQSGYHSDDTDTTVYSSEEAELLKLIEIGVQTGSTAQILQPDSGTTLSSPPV
Summary of the method: as §1

Txk (h) = target: T3, Txk (h) (Homo sapiens, UniProt P42681)
T3 sequence (P42681 1-527): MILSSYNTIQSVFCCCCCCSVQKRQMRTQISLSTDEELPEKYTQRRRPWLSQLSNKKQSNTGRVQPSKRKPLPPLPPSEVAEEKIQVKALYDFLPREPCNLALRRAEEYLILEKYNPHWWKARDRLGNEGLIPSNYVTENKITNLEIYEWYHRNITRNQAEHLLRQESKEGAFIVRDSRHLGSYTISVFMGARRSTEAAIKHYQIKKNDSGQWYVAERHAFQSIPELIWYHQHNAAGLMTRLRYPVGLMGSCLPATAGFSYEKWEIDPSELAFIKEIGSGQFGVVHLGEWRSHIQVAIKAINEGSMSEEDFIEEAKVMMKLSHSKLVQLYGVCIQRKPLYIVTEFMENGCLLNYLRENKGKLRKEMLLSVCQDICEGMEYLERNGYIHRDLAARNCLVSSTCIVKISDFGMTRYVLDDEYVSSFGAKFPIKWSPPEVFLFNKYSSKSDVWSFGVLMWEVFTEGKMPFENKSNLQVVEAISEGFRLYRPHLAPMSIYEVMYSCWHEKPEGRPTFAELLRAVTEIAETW
Summary of the method: as §1

Ret (h) = Ret (h) (Homo sapiens, UniProt P07949)
Summary of the method: as §1

ZAP-70 (h) = target: T4, ZAP-70 (h) (Homo sapiens, UniProt P43403)
T4 sequence (P43403 1-619): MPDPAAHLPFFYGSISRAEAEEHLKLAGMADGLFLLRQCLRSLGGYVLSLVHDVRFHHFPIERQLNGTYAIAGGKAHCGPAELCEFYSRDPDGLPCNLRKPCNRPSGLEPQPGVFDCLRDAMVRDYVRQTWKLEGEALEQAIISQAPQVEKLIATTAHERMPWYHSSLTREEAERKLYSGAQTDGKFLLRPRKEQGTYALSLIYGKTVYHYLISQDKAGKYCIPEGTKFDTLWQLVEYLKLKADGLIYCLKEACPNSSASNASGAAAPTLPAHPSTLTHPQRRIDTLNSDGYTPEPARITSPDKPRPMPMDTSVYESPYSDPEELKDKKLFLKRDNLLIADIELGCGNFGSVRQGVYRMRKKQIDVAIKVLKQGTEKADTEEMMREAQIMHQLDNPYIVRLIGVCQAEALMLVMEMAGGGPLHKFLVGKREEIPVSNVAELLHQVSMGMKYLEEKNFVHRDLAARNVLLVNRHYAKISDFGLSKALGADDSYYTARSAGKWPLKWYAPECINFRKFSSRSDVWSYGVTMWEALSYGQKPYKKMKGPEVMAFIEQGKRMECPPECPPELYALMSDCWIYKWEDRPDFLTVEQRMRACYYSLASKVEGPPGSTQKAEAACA
Summary of the method: as §1

CHK2 (h) = target: T5, CHK2 (h) (Homo sapiens, UniProt O96017)
T5 construct: purchased Millipore
T5 sequence (O96017 whole entry): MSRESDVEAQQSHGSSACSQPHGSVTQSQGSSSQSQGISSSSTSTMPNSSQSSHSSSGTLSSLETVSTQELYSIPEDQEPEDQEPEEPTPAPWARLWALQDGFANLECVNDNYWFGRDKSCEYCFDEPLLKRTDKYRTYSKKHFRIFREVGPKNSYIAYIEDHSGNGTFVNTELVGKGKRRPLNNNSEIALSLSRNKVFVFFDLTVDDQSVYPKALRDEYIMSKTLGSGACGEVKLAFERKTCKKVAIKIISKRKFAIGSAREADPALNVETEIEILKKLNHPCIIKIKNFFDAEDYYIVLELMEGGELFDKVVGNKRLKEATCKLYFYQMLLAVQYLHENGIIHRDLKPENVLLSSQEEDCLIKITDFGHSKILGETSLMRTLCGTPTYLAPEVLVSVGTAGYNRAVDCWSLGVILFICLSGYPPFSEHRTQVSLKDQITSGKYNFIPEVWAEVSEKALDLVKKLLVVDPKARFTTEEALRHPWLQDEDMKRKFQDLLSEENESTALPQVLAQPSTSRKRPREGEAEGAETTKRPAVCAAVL
Summary of the method: as §1

PRAK (h) = target: T6, PRAK (h) (Homo sapiens, UniProt Q8IW41)
T6 sequence (Q8IW41 1-473): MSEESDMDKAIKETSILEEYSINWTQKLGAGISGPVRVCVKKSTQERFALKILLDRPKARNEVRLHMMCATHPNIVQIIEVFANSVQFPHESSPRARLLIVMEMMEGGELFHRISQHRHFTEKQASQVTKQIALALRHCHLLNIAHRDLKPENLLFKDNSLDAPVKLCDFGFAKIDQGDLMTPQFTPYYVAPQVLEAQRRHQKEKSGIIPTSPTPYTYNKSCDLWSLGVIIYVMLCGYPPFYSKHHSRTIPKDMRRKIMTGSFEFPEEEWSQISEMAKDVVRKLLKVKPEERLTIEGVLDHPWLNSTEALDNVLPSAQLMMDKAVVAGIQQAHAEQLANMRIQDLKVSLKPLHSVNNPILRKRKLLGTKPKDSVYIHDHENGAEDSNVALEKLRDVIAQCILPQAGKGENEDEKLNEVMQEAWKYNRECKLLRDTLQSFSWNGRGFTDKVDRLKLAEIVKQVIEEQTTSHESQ
Summary of the method: as §1

Row | Sequence | % activity (Src(1-530) (h)) [%] | % activity (CaMKIIδ (h)) [%] | % activity (KDR (h)) [%] | % activity (Txk (h)) [%] | % activity (Ret (h)) [%] | % activity (ZAP-70 (h)) [%] | % activity (CHK2 (h)) [%] | % activity (PRAK (h)) [%]
1 | YARAAARQARAKALNRQLGVA (Mammalian) [MMI-0200] | 75 | 2 | 110 | 98 | 96 | 58 | – | –
2 | HRRIKAWLKKIKALARQLGVAA (Mammalian) [MMI-0500] | 21 | 1 | 15 | 10 | 174 | 1 | 13 | 95
3 | FAKLAARLYRKALARQLGVAA [MMI-0300] | 23 | 1 | 101 | 48 | 140 | 75 | 66 | 128
4 | KAFAKLAARLYRKALARQLGVAA [MMI-0400] | 19 | 2 | 94 | 37 | 145 | 33 | 54 | 118
